Results from patent US20240002495A1 (MITSUBISHI TANABE PHARMA, published 2024).
Where no end group is shown, it is not given here.

Experiments:
[1] = molecular target: T1, recombinant human IL-33 protein (residues 112 to 270) (ILC0701, ATGen Co. Ltd) (human, UniProt O95760 112-270); experiment: KinExA in PBS, neutral-purified IgG
T1 construct: bought protein
T1 sequence: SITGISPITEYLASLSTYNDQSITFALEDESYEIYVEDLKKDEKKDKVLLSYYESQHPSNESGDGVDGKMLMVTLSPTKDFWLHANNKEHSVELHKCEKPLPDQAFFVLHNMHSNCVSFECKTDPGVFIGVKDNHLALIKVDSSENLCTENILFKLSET
Experimental: Each test antibody (IgG) (“antibody (IgG)” indicates an antibody having a molecular form of IgG; hereinafter, the same representation is used) was analyzed to confirm the affinity with the human IL-33 protein by measuring dissociation constant (Kd) between each test antibody and the human IL-33 protein in PBS by kinetic exclusion assay (KinExA) (KinExA3200, available from Sapidyne Instruments, Inc.). Mixture samples of a test antibody and a human IL-33 protein (ILC0701, available from ATGen Co. Ltd) were prepared. The human IL-33 protein was titrated to a constant concentration of test antibody (final concentration: several tens of pM to several hundreds of pM) over a wide concentration range of the human IL-33 protein (so that it covered the concentrations of the human IL-33 protein resulting from 12-step serial doubling dilutions, i.e. one- to 2048-fold, with the upper limit of final concentration set to several nM to several tens of nM). The mixture samples were incubated at a room temperature until the antigen-antibody reaction reached equilibrium. After the reaction reached equilibrium, the percentage of free anti-IL-33 antibody in each sample was analyzed using KinExA3200. The values of Kd were calculated by fitting the plot of percentages of anti-IL-33 antibody not bound to the human IL-33 protein (vertical axis) and concentrations of antigen (horizontal axis) to a theoretical formula, using a KinExA data analysis program (KinExA Pro Software v3.5.3, available from Sapidyne Instruments, Inc.). Beads for capturing the anti-IL-33 antibody were prepared by suspending 50 mg of Azlactone beads (Sapidyne) in 1 mL of coating solution (10 μg/mL human IL-33 protein (ILC0701, available from ATGen Co. Ltd), 50 mM sodium carbonate at pH of 9.6) and incubating the solution at a room temperature for one hour. The antibody for detection used was anti-human F(ab)′2-DyLight649 (Jackson, 309-495-006).

[2] = molecular target: T2, LEDESYEIYV (human, not fully specified (N-terminus)); experiment: KinExA, alkaline-purified IgG, peptide
T2 construct: synthetic peptide
T2 peptide: LEDESYEIYV
Experimental: (§1) The mixture samples were incubated at a room temperature until the antigen-antibody reaction reached equilibrium. After the reaction reached equilibrium, the percentage of free anti-IL-33 antibody in each sample was analyzed using KinExA3200. The values of Kd were calculated by fitting the plot of percentages of anti-IL-33 antibody not bound to the human IL-33 protein (vertical axis) and concentrations of antigen (horizontal axis) to a theoretical formula, using a KinExA data analysis program (KinExA Pro Software v3.5.3, available from Sapidyne Instruments, Inc.). Beads for capturing the anti-IL-33 antibody were prepared by suspending 50 mg of Azlactone beads (Sapidyne) in 1 mL of coating solution (10 μg/mL human IL-33 protein (ILC0701, available from ATGen Co. Ltd), 50 mM sodium carbonate at pH of 9.6) and incubating the solution at a room temperature for one hour. The antibody for detection used was anti-human F(ab)′2-DyLight649 (Jackson, 309-495-006).
(§2) The anti-IL-33 monoclonal antibodies A10-1C04 and A25-3H04 bound to the epitope PEP14 as described in the Example 1. […] These peptides were synthesized, and the affinity with the alkali-purified antibodies was calculated as Kd by the KinExA experiment as in Example 9 (Table 14).

[3] = molecular target: T3, EDESYEIYV (human, not fully specified (N-terminus)); experiment: KinExA, alkaline-purified IgG, peptide
T3 construct: synthetic peptide
T3 peptide: EDESYEIYV
Experimental: as §1, §2

[4] = molecular target: T4, DQSITFALEDESYEIYVEDL (PEP14) (human, not fully specified); experiment: KinExA, alkaline-purified IgG, peptide
T4 peptide: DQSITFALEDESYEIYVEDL
Experimental: as §1, §2

Kd [1]: 0.166 nM
Kd [2]: 386 nM
Kd [3]: 2070 nM
Kd [4]: 9 nM
B1: A10-1C04 (IgG) (antibody, V domains shown)
VH: EVQLLESGGGLVQPGGSLRLSCAASGFTFSDYYMNWVRQAPGKGLEWVSSISRYSSYIYYADSVKGRFTISRDNSKNTLYLQMNSLRAEDTAVYYCARDIGGMDVWGQGTLVTVSS
VL: QSVLTQPPSASGTPGQRVTISCTGSSSNIGAVYDVHWYQQLPGTAPKLLIYRNNQRPSGVPDRFSGSKSGTSASLAISGLRSEDEADYYCQTYDSSRWVFGGGTKLTVL
notes: tested as neutral-purified and as alkaline-purified antibody; also called V1; IGN1
